Target: full-length MglA (residues 1–205) fused to Zif or to the ω subunit of E. coli RNAP (F. tularensis subspecies holarctica LVS)
Experiment: two-hybrid

full-length F. tularensis LVS SspA (residues 1–210) fused to the ω subunit of E. coli RNAP or to Zif (natural protein)
fold activation of the lacZ reporter: 22 fold

Reference: publication PMC1891329
